Laboratory results taken from a protein production outcome set (Wang et al. 2014).

experiment: label from the status in PepcDB records

Sequence	protein production
ERFQFAGSGGHQLAAALDLPDAQPLAYALFAHCFTCSKDNLAARRISAAMAARGIAVLRFDFTGLGASEGEFENATFSSNVADLVLAADHLRATHRAPTLLIGHSLGGAAVLAAAAQIPEAKAIATIAAPSDPSHVTGLFADDIETIRTEGRVNVSLAGRPFTIKREFLDDIAEHNLMAEIGKLHKALLILHAPTDDTVGIDNATKIFLAAKHPKSFVSLDHADHLLSDRRDANYAAGVIAAWAQRYIDAEPPAPTAGAPEVPR	failed
ERRAPRKGNTLYVYGEDMTPTLLRGAFSPFGNIIDLSMDPPRNCAFVTYEKMESADQAVAELNGTQVESVQLKVNIARKQPMLD	not failed
ERYMQDFDLIFKELERWGPGSESDTLKALQKVPNKSMTLLEIGCGQGIATELFARHTDAMITAVDNEEFALKHLMEKMQQNGLEDKITTVCADMAKMPFETKSFDLIWSEGSAYIMGVQNALKAWKPLLSEDGVLVVSDLVWSTDKPSEGALSFWKKEYPDMVSVSERIKHAQQAGYEVIEHFSLSDAAWEAYYHPLIERLDTLKDKLIDSPVLIDFENEITAFKQRANEFDYEIFILRSR	failed
ESLKAGSSWQCDTCLLQNKVTDNKCIACQAAKLSPRDTAKQTGIETPNKSGKTTLSASGTGFGDKFKPVIGTWDCDTCLVQNKPEAIKCVACETPKPGTCVKRALTLTVV	failed
ESLQQVVMAYFGVQFKSEQKAIALKAMQHIVQSFSLDNGPQNHDITHHTDNQGYENYIVVGYWRDPGAYCRWFRSTEVSHWWDSDERLNDGIGYFREIVIPRADQFETLYAFKEDLPGVGAVMDDISDDIQEHGYWGSARERF	not failed
ETDKTAISVREIADNTYIVLGTMTLNDFNEYFETDLESDNVDTIAGFYLTGVGTIPSQEEKEHFEVESNGKHLELINDKVKDGRVTKLKILVSE	failed
ETLPPRQRQRALALPLRLNPRTVALGAQWRQEAGADDAAIVQRALNWVRTEFTYTLAATKRPGLHTVDEFLFRDKAGFCEQFSSSFVVLMRASGIPARVVTGYVGGIYNNLGHYWVIRRMDAHAWAEVWLPQRGWVRVDPTAAVAPERIRDTLEDRLAQNNNDASIDSHWRLADIGDWLRHSWNNLVLGFDAKRQQQLLHSFGINHLYVSQLMMLFIAFTSVSLGLMAWWLARGERERDALLRAWHRLDRHYARLGLGRTRHEPALVW	failed
EVVVAVASAPVDVAQVGRRRGRLAVIGLGPGAAELMVPAVKAELAQAEDVLGYETYVRMAGPFRGDQVLHCTDNREEMQRARHAFELAAQGRSVAVVSSGDPGVFAMAAAVLEALHESSDPTWHRVDLQILPGV	failed
FAMESYFKGDSGEAELLAVAHKVQSDAWALQKAAGIAVIGLDGTLYDQVLDTITWLGAIPPRFKHLSGLQRYYAMARGGAALDMSKFFDTNYHYLVPELGPDVLGPATAAGAPLQPDFSGPLDKLARGQAVVGRERAVPILIGPVTFVSLSRGCELPLDQAVARLLPTYCALLQQLAAAGAPEVQLHEPVLATSEGAGMRAEFETAYAQMAQAAGSVPLHLVTYYDDLGAAYPWAVQLPVAAVTLDFLGPPGAAVPSQTLALLQQHGFPADKRLGAGVVDGRSVWKDDGTAVALLRALLDTGAVSSDRLVVTSSAPLQHLPYDLGLELEAPKTPEAEPHLPPALAARLGFAKQKVEEIVSVARLAASPAAAAAAAGHGAVVQLQRLQQGKGVEDHTAD	failed
FDKLGNSAAIQEMNREVEAAAKRTSPVFLTGEAGSPFETVARYFHKNGTPWVSPARVEYLIDMPMELLQKAEGGVLYVGDIAQYSRNIQTGITFIIGKAERCRVRVIASCSYAAGSDGISCEEKLAGLFSESVVRIPPLS	not failed
FHSYTGELKIGASVASGQQVLRPALGKFMRQYPDLKVQLNLVNRRVDFIEEGFDVVIRIGQLNDSMLIAKKLGAINRKIFASPSYLAKQGNPDKVEQLTEHQLLIMNP	failed
FKAVFISDTHLGTKDSKASLLLEFIKEIETKELYLVGDIIDGWSLKRKWIWLQPHSDVIQKILKAARKGVRVTYILGNHDEFIRPFLPLALGDHIRVVDEATYKAKNKKRYKIVHGDLYDSITMTKKWLAILGDNGYQFLLRLNDPINTLRQRLGFRRYWSFSQFIKDHVKQAVAYISDFEKILVAHAREEKFDGIICGHIHKAEIRDIEGITYMNCGDWVESCTALVETLEGEFKIIRW	failed
FKDLRLVSYTLLFDFIVSRVIDLIGEGGYAGKGFMIITKRPDQLAKAINDDLGRGVTFISGQGYYSKENLKIIYCIVGRNEIVKTKEMIHRIDPQAFITITEAHEILGEGFTFEKE	failed
FKVPPFQDCILSFLGFSDEEKHSMEEMTEMQGGSYLPVGDERCTHLIVEENTVKDLPFEPSKKLFVVKQEWFWGSIQMDARAGETMYLYEKANTPE	not failed
FLILLRKTLEQLQEKDTGNIFSEPVPLSEVPDYLDHIKKPMDFFTMKQNLEAYRYLNFDDFEEDFNLIVSNCLKYNAKDTIFYRAAVRLREQGGAVLRQARRQAEKMG	not failed
FLVTPEGRRIAYRLTDGEGPAVVFCGGFKSDMEGTKALHLQAWAERTGRAFLRFDYSGHGQSEGAFLDGSIGDWFEDARAVCGLLAGPLLLVGSSMGGWISLLLAREMGARVAGLVGIAAAPDFTEDSMWGGFNAAQREALQRAGQVILPSDYSEEPYIITRRLIEEGRRRLVLRDPLELGFPVRLLQGTADVDVPPSVALRLLDHATGPDIRLTLVKGADHRFSTPECLRMIEQAVEELL	failed
FQKYQYPIYYGNAIFLADSPKKIDTPLYSPIKIAFEKALKNAKDSVFIASSYFIPGKKMMKIFKNQISKGIELNILTNSLSSTDAIVVYGAWERYRNQLVRMGANVYEIRNDFFNRQIKGRFSTKHSLHGKTIVFDDNLTLLGSFNIDPRSAYINTESAVLFDNPSFAKRVRLSLKDHAQQSWHLVVYRHRVIWEAVEEGILIHEKTSPDTSFFLRLIKEWSKVLPEREL	failed
